Test results as given in patent publication US20120171195A1.
Each block holds one substance with its values, some of them ahead of it.

What was measured:
HLA-B*5101 (human) = assay: Luminex beads; MAb 1/800; competitor rHLA-E
HLA-Cw*0501 (human) = assay: Luminex beads; MAb 1/800; competitor rHLA-E
HLA-B*3701 (human) = assay: Luminex beads; MAb 1/800; competitor rHLA-E
HLA-Cw*1601 (human) = HLA-Cw*1601 (human) (UniProt P10321); assay: Luminex beads; MAb 1/800; competitor rHLA-E
HLA-Cw*1802 (human) = HLA-Cw*1802 (human) (UniProt P10321); assay: Luminex beads; MAb 1/800; competitor rHLA-E
HLA-Cw*1402 (human) = HLA-Cw*1402 (human) (UniProt P10321); assay: Luminex beads; MAb 1/800; competitor rHLA-E
HLA-B*5401 (B54) (human) = HLA-B*5401 (B54) (human) (UniProt P01889); assay: Luminex single-antigen beads; MEM-E/02 1/600; serum Mi114 1/100
HLA-B*1401 (B64) (human) = HLA-B*1401 (B64) (human) (UniProt P01889); assay: as above
HLA-B*4403 (B44) (human) = assay: as above
HLA-B*4801 (B48) (human) = HLA-B*4801 (B48) (human) (UniProt P01889); assay: as above
HLA-A*2403 (A24) (human) = assay: as above
HLA-A*2402 (A24) (human) = HLA-A*2402 (A24) (human) (UniProt P04439); assay: as above
HLA-B*0801 (B8) (human) = HLA-B*0801 (B8) (human) (UniProt P01889); assay: as above
HLA-B*1513 (B77) (human) = assay: as above
HLA-A*2601 (A26) (human) = assay: as above
HLA-B*3801 (B38) (human) = assay: as above
HLA-B*4501 (B45) (human) = assay: as above
HLA-B*1801 (B18) (human) = assay: as above
HLA-A*2501 (A25) (human) = assay: as above
[1] = biological target: HLA-Cw*0401 (Cw4) (human); assay: as above
[2] = biological target: HLA-Cw*0801 (Cw8) (human) (UniProt P10321); assay: as above
HLA-Cw*0304 (human) = assay: as above
HLA-B*5201 (B52) (human) = assay: as above
HLA-B*6701 (B67) (human) = HLA-B*6701 (B67) (human) (UniProt P01889); assay: as above
HLA-B*5301 (B53) (human) = assay: as above
HLA-B*1301 (B13) (human) = assay: as above
HLA-A*3201 (A32) (human) = assay: as above
HLA-A*3002 (A30) (human) = HLA-A*3002 (A30) (human) (UniProt P04439); assay: as above
HLA-A*3301 (A33) (human) = assay: as above
[3] = biological target: HLA-Cw*1502 (Cw15) (human); assay: as above
HLA-B*2708 (B27) (human) = HLA-B*2708 (B27) (human) (UniProt P01889); assay: as above
[4] = biological target: HLA-Cw*1701 (Cw17) (human); assay: as above
[5] = biological target: HLA-Cw*1203 (Cw12) (human) (UniProt P10321); assay: as above
HLA-B*3901 (B39) (human) = HLA-B*3901 (B39) (human) (UniProt P01889); assay: as above
[6] = biological target: HLA-Cw*1802 (Cw18) (human) (UniProt P10321); assay: as above
HLA-A*2901 (A29) (human) = HLA-A*2901 (A29) (human) (UniProt P04439); assay: as above
HLA-B*5801 (B58) (human) = assay: as above

MFI (HLA-B*5101 (human)): 99 MFI | MFI (HLA-Cw*0501 (human)): 70 MFI | MFI (HLA-B*3701 (human)): 29 MFI | MFI (HLA-Cw*1601 (human)): 87 MFI | MFI (HLA-Cw*1802 (human)): 35 MFI | MFI (HLA-Cw*1402 (human)): 48 MFI
Substance: murine monoclonal antibody (MAb) MEM-E/02

% inhibition (HLA-B*5401 (B54) (human)): 95% | MFI (HLA-B*5401 (B54) (human)): 990 MFI | MFI (HLA-B*1401 (B64) (human)): < 500 MFI | MFI (HLA-B*4403 (B44) (human)): < 500 MFI | MFI (HLA-B*4801 (B48) (human)): 969 MFI | MFI (HLA-A*2403 (A24) (human)): < 500 MFI | MFI (HLA-A*2402 (A24) (human)): < 500 MFI | MFI (HLA-B*0801 (B8) (human)): < 500 MFI | MFI (HLA-B*1513 (B77) (human)): 1550 MFI | MFI (HLA-A*2601 (A26) (human)): < 500 MFI | % inhibition (HLA-B*3801 (B38) (human)): 76% | MFI (HLA-B*3801 (B38) (human)): 929 MFI | MFI (HLA-B*4501 (B45) (human)): < 500 MFI | MFI (HLA-B*1801 (B18) (human)): < 500 MFI | MFI (HLA-A*2501 (A25) (human)): < 500 MFI | MFI [1]: < 500 MFI | MFI [2]: < 500 MFI | MFI (HLA-Cw*0304 (human)): < 500 MFI | % inhibition (HLA-B*5201 (B52) (human)): 88% | MFI (HLA-B*6701 (B67) (human)): < 500 MFI | MFI (HLA-B*5301 (B53) (human)): < 500 MFI | MFI (HLA-B*1301 (B13) (human)): < 500 MFI | MFI (HLA-A*3201 (A32) (human)): 742 MFI | MFI (HLA-A*3002 (A30) (human)): 803 MFI | MFI (HLA-A*3301 (A33) (human)): < 500 MFI | MFI [3]: < 500 MFI | % inhibition (HLA-B*2708 (B27) (human)): 29% | MFI (HLA-B*2708 (B27) (human)): 2260 MFI | MFI [4]: < 500 MFI | MFI [5]: < 500 MFI | MFI (HLA-B*3901 (B39) (human)): 530 MFI | MFI [6]: < 500 MFI | MFI (HLA-A*2901 (A29) (human)): < 500 MFI | % inhibition (HLA-B*5801 (B58) (human)): 37% | MFI (HLA-B*5801 (B58) (human)): 2110 MFI
Substance: murine monoclonal antibody MAb MEM-E/02
